Measured values reported in patent US7727960B2, “C5a receptor antagonists” (Jerini AG, priority 2003, dated 2010).

Target: T1, human C5aR (CD88) (human, UniProt P21730 1-350)
T1 sequence (looked up): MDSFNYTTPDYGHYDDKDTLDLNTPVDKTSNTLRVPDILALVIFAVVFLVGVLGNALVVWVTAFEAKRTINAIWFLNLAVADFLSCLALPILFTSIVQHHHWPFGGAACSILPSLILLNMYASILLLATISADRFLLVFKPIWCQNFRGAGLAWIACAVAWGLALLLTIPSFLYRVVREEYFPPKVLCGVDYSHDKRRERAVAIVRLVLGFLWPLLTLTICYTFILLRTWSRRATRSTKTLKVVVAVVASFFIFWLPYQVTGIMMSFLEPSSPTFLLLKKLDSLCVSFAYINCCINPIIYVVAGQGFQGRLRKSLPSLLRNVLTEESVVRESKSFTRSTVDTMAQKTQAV
Assay: cell-based or functional assay

Row | Substance | IC50 activity group, enzyme release assay [µM] | EC50, agonistic activity, enzyme release assay [µM]
1 | Ac-Phe-Orn-Pro-cha-Bta-NH-CH(CH2OH)-CH2-Ph (peptide) | < 0.2 | –
2 | Ac-Phe-Orn-Chy-hle-Pff-Phe-NH2 (peptide) | < 0.2 | –
3 | Ac-Phe-Orn-Pro-cha-Otf-Phe-NH2 (peptide) | < 0.2 | –
4 | Ac-Phe-Orn-Pro-Cha-Bta-NH-NBn-CO-NH2 (peptide) | < 0.2 | –
5 | Ac-Phe-Eec-Pro-cha-Bta-Phe-NH2 (peptide) | < 0.2 | –
6 | Ac-Phe-[Orn-Hyp(CONH-CH2CH(OH)-CH2OH)-cha-Trp-Nle] (peptide) | < 0.2 | –
7 | Ac-Phe-Orn-Pip-cha-Trp-Phe-NH2 (peptide) | < 0.05 | > 100
8 | Ac-Phe-Orn-Pro-cha-Bta-Thi-NH2 (peptide) | < 0.02 | –
9 | H-Phe-[Orn-Pro-hle-Pff-Phe] (peptide) | < 0.05 | –
10 | Ac-Arg-Phe-Orn-Aze-cha-Bta-Phe-NH2 (peptide) | < 0.05 | –
11 | Ac-Phe-Orn-Aze-cha-Bta-Phe-NH-Me (peptide) | < 2 | –
12 | Ac-Phe-Orn-Pro-hle-Bta-Chg-NH2 (peptide) | < 0.2 | –
13 | Ac-Ebw-Orn-Pro-cha-Trp-Phe-NH2 (peptide) | < 0.2 | > 100
14 | Ac-Phe-Fcn-Aze-cha-Bta-Phe-NH2 (peptide) | < 0.02 | –
15 | Ac-Phe-Orn-Pro-cha-Bta-Mcf-NH2 (peptide) | < 0.2 | –
16 | Ac-Thi-Orn-Pro-cha-Bta-Thi-NH2 (peptide) | < 0.05 | –
17 | Ac-Phe-[Orn-Pro-hle-Bta-Phe] (peptide) | < 0.2 | –
18 | 3PP-[Orn-Hyp-cha-Trp-Nle] (peptide) | < 0.05 | –
19 | Ac-Phe-[Orn-Thr-cha-Trp-Nle] (peptide) | < 0.2 | –
20 | Ac-Phe-Orn-NMS-cha-Bta-Phe-NH2 (peptide) | < 0.2 | –

Row | Substance | IC50 activity group, enzyme release assay [µM] | EC50, agonistic activity, enzyme release assay [µM]
21 | Ac-Phe-Orn-Hyp-cha-Trp-Phe-NH2 (peptide) | < 2 | –
22 | Ac-Phe-[Orn-Hyp-hle-Mcf-Phe] (peptide) | < 0.2 | –
23 | Ac-Phe-Orn-Aze-cha-Pff-Phe-NH2 (peptide) | < 0.2 | –
24 | Ac-Thi-Orn-Aze-cha-Bta-Phe-NH2 (peptide) | < 0.02 | –
25 | Ac-Phe-Orn-Pro-hle-Pff-Pff-NH2 (peptide) | < 0.2 | –
26 | Ac-Gly-Phe-Orn-Aze-hch-Bta-Phe-NH2 (peptide) | < 0.2 | –
27 | Ac-Phe-[Orn-Asn-cha-Trp-Nle] (peptide) | < 0.2 | –
28 | Ac-Phe-[Orn-Ser-hle-Trp-Nle] (peptide) | < 0.2 | –
29 | Ac-Mff-Orn-Pro-hle-Bta-Phe-NH2 (peptide) | < 0.2 | –
30 | Ac-Phe-Fco-Pro-cha-Bta-Phe-NH2 (peptide) | < 0.05 | –
31 | Ac-Gly-Phe-Orn-Aze-chg-Bta-Phe-NH2 (peptide) | < 0.2 | –
32 | Ac-Phe-[Orn-Hyp-hle-Pff-Phe] (peptide) | < 0.2 | –
33 | Ac-Phe-Orn-Pro-hle-Egz-Phe-NH2 (peptide) | < 0.2 | –
34 | Ac-Pff-Orn-Pro-hle-Bta-Phe-NH2 (peptide) | < 0.2 | –
35 | H-Phe-[Orn-Hyp-cha-Trp-Nle] (peptide) | < 0.05 | –
36 | Ac-Phe-Orn-Aze-hle-Bta-Phe-NH2 (peptide) | < 0.05 | –
37 | Ac-Phe-Orn-Pro-cha-Bta-Bhf-NH2 (peptide) | < 0.05 | –
38 | H-Nip-Phe-Cit-Pro-hle-Bta-Phe-NH2 (peptide) | < 0.2 | –
39 | H-Phe-[Orn-Pro-cha-Pff-Nle] (peptide) | < 0.2 | –
40 | Ac-Phe-Orn-Pro-hle-Mmy-Phe-NH2 (peptide) | < 0.2 | –

Other lines, results leading:

Row | IC50 activity group, enzyme release assay [µM] | EC50, agonistic activity, enzyme release assay [µM] | Substance
41 | < 0.05 | – | CH3-SO2-Phe-Orn-Aze-cha-Bta-Phe-NH2 (peptide)
42 | < 0.05 | – | Ac-Cit-Phe-Orn-Aze-cha-Bta-Phe-NH2 (peptide)
43 | < 0.2 | – | Ac-Phe-[Orn-NMD-cha-Trp-Nle] (peptide)
44 | < 0.2 | – | H-Phe-[Orn-NMS-cha-Trp-Nle] (peptide)
45 | < 0.05 | – | Ac-Phe-Orn-Pro-cha-Bta-Pmf-NH2 (peptide)
46 | < 0.2 | – | Ac-Phe-Cit-Hyp-hle-Bta-Phe-NH2 (peptide)
47 | < 0.05 | – | Ac-Thi-Orn-Pro-cha-Bta-Phe-NH2 (peptide)
48 | < 0.2 | – | Ac-Phe-Orn-Pro-cha-Bta-Opa-NH2 (peptide)
49 | < 0.2 | – | Ac-Mmy-Orn-Pro-hle-Pff-Phe-NH2 (peptide)
50 | < 0.05 | – | Ac-Phe-Orn-Pro-cha-Bta-Dff-NH2 (peptide)
51 | < 0.2 | – | Ac-Phe-Orn-Pro-hle-Bta-1Ni-NH2 (peptide)
52 | < 0.2 | – | Ac-Phe-Orn-Pro-hle-Bta-Aic-NH2 (peptide)
53 | < 0.05 | – | H-Phe-[Orn-Ser-hle-Trp-Nle] (peptide)
54 | < 0.2 | – | Ac-Phe-[Orn-Hyp-Mmf-Trp-Phe] (peptide)
55 | < 0.05 | – | Ac-Phe-Ffa-Aze-cha-Bta-Phe-NH2 (peptide)
56 | < 0.2 | – | H-Phe-[Orn-Hyp-hle-Pff-Nle] (peptide)

Row | IC50 activity group, enzyme release assay [µM] | EC50, agonistic activity, enzyme release assay [µM] | Substance
57 | < 0.02 | – | Ac-Phe-Orn-Aze-cha-Bta-Phe-NH2 (peptide)
58 | < 0.2 | – | Ac-His-Phe-Orn-Aze-cha-Bta-Phe-NH2 (peptide)
59 | < 2 | – | (-CO-CH2-CH2-CO-)-Phe-Orn-Pro-cha-Bta-Phe-NH2 (peptide)
60 | < 0.05 | – | Ac-Phe-Orn-Pro-ctb-Eaa-Phe-NH2 (peptide)
61 | < 0.05 | > 1.43 | Ac-Phe-[Orn-Hyp-cha-Trp-Phe] (peptide)
62 | < 0.05 | – | FH2C-CO-Phe-Orn-Pro-cha-Bta-Phe-NH2 (peptide)
63 | < 0.2 | – | Ac-Phe-Cit-Pro-cha-Bta-Phe-NH2 (peptide)
64 | < 0.05 | – | FAc-Phe-Orn-Aze-cha-Bta-Phe-NH2 (peptide)
65 | < 0.02 | – | Ac-Phe-Orn-Pro-cha-Bta-Mff-NH2 (peptide)
66 | < 2 | – | Ac-Phe-Paf-Pro-cha-Bta-Phe-NH2 (peptide)
67 | < 0.2 | – | (-CO-CH2-NH-CO-)-Phe-Orn-Pro-cha-Bta-Phe-NH2 (peptide)
68 | < 0.05 | – | Ac-Phe-Cit-Pro-hle-Bta-Phe-NH2 (peptide)
69 | < 0.2 | – | Ac-Phg-Orn-Pro-cha-Bta-Phe-NH2 (peptide)
70 | < 0.2 | – | Bzl-[Orn-Pro-cha-Bta-Nle] (peptide)
71 | < 0.2 | – | Ac-Phe-[Orn-Hyp-Mmf-Trp-Nle] (peptide)
72 | < 0.2 | – | H-Phe-[Orn-Ser-hle-Pff-Leu] (peptide)
